{"source": "the supplement of paper PMC10598134", "assay": "collision cross section of modified peptide (TIMS, N2, iRT-aligned); higher = larger / more extended gas-phase ion", "procedure,_shortened": "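On a timsTOF Pro/HT (dda-PASEF, nitrogen, ~2.4 mbar), synthetic peptide pools were analysed after a 120-min nanoflow C18 separation at 60 °C and identified in MaxQuant. Three reference ions served for 1/K0 calibration, with run-wise alignment to the median iRT peptide deviation. Collision cross section comes from the Mason-Schamp equation, using the most abundant feature per charge state averaged over 1–3 technical replicates.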", "key": {"[1]": {"conditions": "charge state: 2, modification: Trimethyl (K)"}, "[2]": {"conditions": "charge state: 3, modification: Trimethyl (K)"}, "[3]": {"conditions": "charge state: 2, modification: Phospho (Y)"}, "[4]": {"conditions": "charge state: 2, modification: Glutarylation"}, "[5]": {"conditions": "charge state: 2, modification: Citrullination (R)"}, "[6]": {"conditions": "charge state: 2, modification: GlyGly (K)"}, "[7]": {"conditions": "charge state: 3, modification: GlyGly (K)"}, "[8]": {"conditions": "charge state: 2, modification: Acetyl (K)"}, "[9]": {"conditions": "charge state: 3, modification: Acetyl (K)"}, "[10]": {"conditions": "charge state: 3, modification: Citrullination (R)"}}, "note": "± gives the standard deviation.", "data": [{"sequence": "LEKTIDDLEEK [_LEK(Trimethyl (K))TIDDLEEK_]", "values": [{"measurement": "collision cross section", "setting": "[1]", "value": "402.76 ± 0.62", "unit": "Å²"}, {"measurement": "collision cross section", "setting": "[2]", "value": "468.63 ± 1.5", "unit": "Å²"}]}, {"sequence": "LSITGTYDLK [_LSITGTY(Nitro (Y))DLK_]", "values": [{"measurement": "collision cross section", "setting": "charge state: 2, modification: Nitro (Y)", "value": "368.48 ± 0.22", "unit": "Å²"}]}, {"sequence": "HGVYNPNK [_HGVY(Phospho (Y))NPNK_]", "values": [{"measurement": "collision cross section", "setting": "[3]", "value": "346.37 ± 0.75", "unit": "Å²"}]}, {"sequence": "GSLEKGSPEDK [_GSLEK(Dimethyl (K))GSPEDK_]", "values": [{"measurement": "collision cross section", "setting": "charge state: 2, modification: Dimethyl (K)", "value": "362.2 ± 0.83", "unit": "Å²"}, {"measurement": "collision cross section", "setting": "charge state: 3, modification: Dimethyl (K)", "value": "433.68 ± 2.1", "unit": "Å²"}]}, {"sequence": "VYIASSSGSTAIKK [_VYIASSSGSTAIK(Gluratylation)K_]", "values": [{"measurement": "collision cross section", "setting": "[4]", "value": "420.03 ± 1.5", "unit": "Å²"}, {"measurement": "collision cross section", "setting": "charge state: 3, modification: Glutarylation", "value": "512.2 ± 1", "unit": "Å²"}]}, {"sequence": "LGVATVAKGVCGACK [_LGVATVAK(Biotin)GVCGACK_]", "values": [{"measurement": "collision cross section", "setting": "charge state: 2, modification: Biotin", "value": 431.82, "unit": "Å²"}, {"measurement": "collision cross section", "setting": "charge state: 3, modification: Biotin", "value": 507.7, "unit": "Å²"}]}, {"sequence": "PLPVALQTRLAK [_PLPVALQTR(Citrullination (R))LAK_]", "values": [{"measurement": "collision cross section", "setting": "[5]", "value": "391.36 ± 0.54", "unit": "Å²"}]}, {"sequence": "SGNLTEDDKHNNAK [_SGNLTEDDK(Butyryl)HNNAK_]", "values": [{"measurement": "collision cross section", "setting": "charge state: 2, modification: Butyryl", "value": "425.09 ± 0.55", "unit": "Å²"}, {"measurement": "collision cross section", "setting": "charge state: 3, modification: Butyryl", "value": "472.83 ± 2.7", "unit": "Å²"}]}, {"sequence": "PRGVISTPVIR [_PR(Methyl (R))GVISTPVIR_]", "values": [{"measurement": "collision cross section", "setting": "charge state: 2, modification: Methyl (R)", "value": 373.92, "unit": "Å²"}, {"measurement": "collision cross section", "setting": "charge state: 3, modification: Methyl (R)", "value": "447.15 ± 2.7", "unit": "Å²"}]}, {"sequence": "DYSAPVNFISAGLKK [_DYSAPVNFISAGLK(GlyGly (K))K_]", "values": [{"measurement": "collision cross section", "setting": "[6]", "value": "449.5 ± 1.6", "unit": "Å²"}, {"measurement": "collision cross section", "setting": "[7]", "value": "532.12 ± 1.1", "unit": "Å²"}]}, {"sequence": "LGVATVAKGVCGACK [_LGVATVAK(Malonyl)GVCGACK_]", "values": [{"measurement": "collision cross section", "setting": "charge state: 2, modification: Malonyl", "value": "416.08 ± 0.71", "unit": "Å²"}, {"measurement": "collision cross section", "setting": "charge state: 3, modification: Malonyl", "value": 487.74, "unit": "Å²"}]}, {"sequence": "VNIGQGSHPQKVK [_VNIGQGSHPQK(Acetyl (K))VK_]", "values": [{"measurement": "collision cross section", "setting": "[8]", "value": "426.92 ± 2.1", "unit": "Å²"}, {"measurement": "collision cross section", "setting": "[9]", "value": "478.98 ± 3.2", "unit": "Å²"}]}, {"sequence": "IVEKYGYTHLSAGELLR [_IVEK(Trimethyl (K))YGYTHLSAGELLR_]", "values": [{"measurement": "collision cross section", "setting": "[2]", "value": "554.1 ± 0.025", "unit": "Å²"}]}, {"sequence": "VFIGNLNTLVVKK [_VFIGNLNTLVVK(GlyGly (K))K_]", "values": [{"measurement": "collision cross section", "setting": "[6]", "value": "445.95 ± 1.4", "unit": "Å²"}, {"measurement": "collision cross section", "setting": "[7]", "value": "487.11 ± 2", "unit": "Å²"}]}, {"sequence": "ATVASSTQKFQDLGVK [_ATVASSTQK(Crotonyl)FQDLGVK_]", "values": [{"measurement": "collision cross section", "setting": "charge state: 2, modification: Crotonyl", "value": "452.45 ± 0.83", "unit": "Å²"}, {"measurement": "collision cross section", "setting": "charge state: 3, modification: Crotonyl", "value": "494.25 ± 1.6", "unit": "Å²"}]}, {"sequence": "VEPGSLESSPGLGRGR [_VEPGSLESSPGLGR(Citrullination (R))GR_]", "values": [{"measurement": "collision cross section", "setting": "[5]", "value": "418.2 ± 0.21", "unit": "Å²"}, {"measurement": "collision cross section", "setting": "[10]", "value": "495.92 ± 3.1", "unit": "Å²"}]}, {"sequence": "DYILEGEPGK [_DY(Phospho (Y))ILEGEPGK_]", "values": [{"measurement": "collision cross section", "setting": "[3]", "value": "357.17 ± 0.065", "unit": "Å²"}]}, {"sequence": "DLTTAGAVTQCYR [_DLTTAGAVTQCY(Phospho (Y))R_]", "values": [{"measurement": "collision cross section", "setting": "[3]", "value": "405.28 ± 0.061", "unit": "Å²"}]}, {"sequence": "GGSGGRGVSVSSAR [_GGSGGR(Citrullination (R))GVSVSSAR_]", "values": [{"measurement": "collision cross section", "setting": "[5]", "value": "361.74 ± 2.3", "unit": "Å²"}, {"measurement": "collision cross section", "setting": "[10]", "value": "445.09 ± 2.9", "unit": "Å²"}]}, {"sequence": "STGLELETPSLVPVKK [_STGLELETPSLVPVK(Acetyl (K))K_]", "values": [{"measurement": "collision cross section", "setting": "[8]", "value": "431.84 ± 2.2", "unit": "Å²"}, {"measurement": "collision cross section", "setting": "[9]", "value": "518.73 ± 1.1", "unit": "Å²"}]}, {"sequence": "SPSDSGYSYETIGKTTK [_SPSDSGYSYETIGK(Acetyl (K))TTK_]", "values": [{"measurement": "collision cross section", "setting": "[8]", "value": "448.1 ± 2.3", "unit": "Å²"}, {"measurement": "collision cross section", "setting": "[9]", "value": "524.63 ± 0.47", "unit": "Å²"}]}, {"sequence": "TYVQDILR [_TY(Phospho (Y))VQDILR_]", "values": [{"measurement": "collision cross section", "setting": "[3]", "value": "359.66 ± 0.65", "unit": "Å²"}]}, {"sequence": "IQQELQTAKK [_IQQELQTAK(GlyGly (K))K_]", "values": [{"measurement": "collision cross section", "setting": "[6]", "value": "381.49 ± 0.89", "unit": "Å²"}, {"measurement": "collision cross section", "setting": "[7]", "value": "434.95 ± 2", "unit": "Å²"}]}, {"sequence": "GPPRGGPGGELPR [_GPPR(Citrullination (R))GGPGGELPR_]", "values": [{"measurement": "collision cross section", "setting": "[5]", "value": "368.26 ± 0.27", "unit": "Å²"}, {"measurement": "collision cross section", "setting": "[10]", "value": "454.52 ± 3.7", "unit": "Å²"}]}, {"sequence": "GADFLVTEVENGGSLGSKK [_GADFLVTEVENGGSLGSK(Succinyl)K_]", "values": [{"measurement": "collision cross section", "setting": "charge state: 2, modification: Succinyl", "value": "480.22 ± 1.1", "unit": "Å²"}, {"measurement": "collision cross section", "setting": "charge state: 3, modification: Succinyl", "value": 554.56, "unit": "Å²"}]}, {"sequence": "ATVASSTQKFQDLGVK [_ATVASSTQK(Trimethyl (K))FQDLGVK_]", "values": [{"measurement": "collision cross section", "setting": "[1]", "value": "475.64 ± 1.1", "unit": "Å²"}, {"measurement": "collision cross section", "setting": "[2]", "value": "477.04 ± 1.8", "unit": "Å²"}]}, {"sequence": "SDDESSQKDIK [_SDDESSQK(Gluratylation)DIK_]", "values": [{"measurement": "collision cross section", "setting": "[4]", "value": "382.21 ± 1.1", "unit": "Å²"}]}, {"sequence": "VGTASVLQPVKK [_VGTASVLQPVK(hydroxyisobutyryl)K_]", "values": [{"measurement": "collision cross section", "setting": "charge state: 2, modification: hydroxyisobutyryl", "value": "388.32 ± 0.29", "unit": "Å²"}, {"measurement": "collision cross section", "setting": "charge state: 3, modification: hydroxyisobutyryl", "value": "413.48 ± 1.6", "unit": "Å²"}]}, {"sequence": "DDSFLGKLGGTLAR [_DDSFLGK(Acetyl (K))LGGTLAR_]", "values": [{"measurement": "collision cross section", "setting": "[8]", "value": "410.51 ± 1.7", "unit": "Å²"}, {"measurement": "collision cross section", "setting": "[9]", "value": 489.73, "unit": "Å²"}]}, {"sequence": "SKLLFSNTAAQK [_SK(Methyl (K))LLFSNTAAQK_]", "values": [{"measurement": "collision cross section", "setting": "charge state: 2, modification: Methyl (K)", "value": "387.94 ± 0.83", "unit": "Å²"}, {"measurement": "collision cross section", "setting": "charge state: 3, modification: Methyl (K)", "value": "461.44 ± 4.6", "unit": "Å²"}]}]}
